Reference: the supplement of paper PMC12042874
± gives the uncertainty stated by the source.

assay: amyloid nucleation score (Sup35N fusion, yeast selection) (log enrichment); library NNK3; higher = more nucleation; inactive = no reads after selection
Procedure, shortened: (§1)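 Plasmid inserts were Illumina-sequenced at input and output from psi-negative yeast expressing Sup35N fused to peptides of 20 random codons. The yeast were induced with 100 μM copper sulfate for 24 hours and grown 7 days at 30°C on medium lacking adenine and uracil, and sequences with under 100 input reads were excluded. Nucleation score is the DiMSum log enrichment of output over input reads, centred on the mode score of non-aggregating sequences.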

| Substance | amyloid nucleation score |
| --- | --- |
| YSKYSYSCVDGMIW | inactive |
| YSLFGWVSMFGC | inactive |
| YSMDTPCFINSGVFSADPNL | inactive |
| YSMVFHTWCMRVMRGVFIWM | inactive |
| YSNHLD | inactive |
| YSNYCGQFSIVPIVFFYIVI | 1.1 ± 0.15 |
| YSQLRARMKCVYLGY | inactive |
| YSSPRSVNSYGLDYVYRTA | inactive |
| YSVFGVNKQMAFAVCDWHHC | 0.477 ± 0.17 |
| YSVMSNHETIYYMSVS | inactive |
| YTDSLVLPHGHMIGRVQSFY | inactive |
| YTFNVNITPFTMYHSFIYFS | 3.08 ± 0.051 |
| YTIYIIIRW | 1.03 ± 0.084 |
| YTKATHSVMFGFTVIVVF | inactive |
| YTLMFNCRFALLFYYTFSYG | inactive |
| YTMVWFLSSYSNY | inactive |
| YTVSS | inactive |
| YVFSTWSSP | inactive |
| YVGTYNFICEAYALDMTEQW | inactive |
| YVICVISVQRWTM | inactive |

| Substance | amyloid nucleation score |
| --- | --- |
| YVIICYST | -0.539 ± 1 |
| YVIITGRKQGITNM | inactive |
| YVKGRSETCPKDRIKGVRSD | inactive |
| YVKPDDDAQVKVGWGQFSVG | inactive |
| YVLKLSRYMPN | inactive |
| YVLNKGFWGGNTLQSWRVSD | inactive |
| YVLRLASCSFTPVSEVHLSW | inactive |
| YVMNHTLGAILNAFRGI | 1.04 ± 0.17 |
| YVNLCLGANPRSYMFKYGTH | 0.197 ± 0.66 |
| YVNLHPMLATAAIYVNSSAG | inactive |
| YVPIIWYASQHLVPSKSYSA | inactive |
| YVRIWSFMNYAVMVSITLIV | inactive |
| YVRWCQWYGETDGPCCRNTV | inactive |
| YVSCK | inactive |
| YVVFFDFLSQTVIWVSPGRF | inactive |
| YVVPRFTVMGEQKKCQWRSL | inactive |
| YVWMKGHNHYFFESMDVYLM | inactive |
| YVYSVFFYRWW | inactive |
| YWAQLPNPPYLLCPH | inactive |
| YWFDSPPSFRAYPCWNR | inactive |

| Substance | amyloid nucleation score |
| --- | --- |
| YWLGA | inactive |
| YWLIRDLWRGRGS | inactive |
| YWLRVIKRHRDRHR | inactive |
| YWMPIDLGFSSLNWPESSRS | inactive |
| YWNFYSSNLYWT | inactive |
| YWVRNVGYRRNSSSCTWSRG | inactive |
| YWVTLFRSARVWMITLNLFD | inactive |
| YYCMFVGD | 1.24 ± 0.15 |
| YYDMIMLPAKSDANRCYGCA | inactive |
| YYFCMLS | 2.55 ± 0.072 |
| YYFFRKYEENFSGSNTGLVI | inactive |
| YYFRAQADCFMYICVLDLDG | inactive |
| YYFTFFIKCMRNIMVNSMAA | inactive |
| YYNTYCTVDIYYLNPCVNLQ | 3.01 ± 0.056 |
| YYRLFLI | inactive |
| YYSVMCRVRVA | inactive |
| YYVRRIMT | inactive |
| YYWCFSF | 2.23 ± 0.06 |
| YYYLR | inactive |

assay: amyloid nucleation score (Sup35N fusion, yeast selection) (log enrichment); library NNK2; higher = more nucleation; inactive = no reads after selection
Procedure, shortened: as §1

| Substance | amyloid nucleation score |
| --- | --- |
| AAAYCYRTEEW | 1.6 ± 0.22 |
| ACCRTNFATLVLKEKMNLD | 0.326 ± 0.3 |
| ACFSNMDCPGGFVHVFALYG | inactive |
| ACQPVWIESRFSLAERTRLS | 0.012 ± 1 |
| ACRLISLVML | inactive |
| ACVTPTAARNQIPALIYDTS | -0.135 ± 0.63 |
| ADCFWAIDYPTWAYRIYGSH | inactive |
| ADLSRRLGMFVVLCLGGWAW | -0.326 ± 0.63 |
| ADRWYYMQPNTLCSNVTANA | 1.26 ± 0.37 |
| ADYGVGSRFFVALFSNVFGV | 8.15 ± 0.071 |
| ADYLRDSFQRWLMEVGLDRR | 1.44 ± 0.26 |
| AEADGYLFSALHTPYWTSGV | 0.294 ± 0.64 |
| AEQRWTVRIVLSYYVSKINI | 0.316 ± 0.65 |
| AFCMDYAAQSAVTRSRDSCS | 0.909 ± 0.53 |
| AFESKAPGRSSLVGIACSYS | -0.48 ± 0.48 |
| AFFACRNASSHTLWMLG | 5.91 ± 0.07 |
| AFHRECPGSSVQDWFTWRGT | -0.36 ± 0.63 |
| AFLSLFNSYWYFVFAKLF | -0.558 ± 0.74 |
| AFQWYLM | -0.693 ± 0.18 |
| AFSSCSMFATNRLPTSYKSD | 3.48 ± 0.084 |
| AFTCYVETSIIMPNMS | -0.734 ± 0.76 |
| AFYCQRDRVE | 3.18 ± 0.099 |
| AGLLPENYFSCILGINVVIF | 3.13 ± 0.065 |
| AGPAQQYMCMTCVTSVHTDP | 8.84 ± 0.045 |
